Experimental findings from paper PMC9092470, “Understanding p300-transcription factor interactions using sequence variation and hybridization†” (RSC Chemical Biology, 2022) are described below.

No end group written: not given here.

For test [1], the target named is GST-p300 (p300 CH1 domain, residues 330–420) (Homo sapiens, UniProt Q09472). Nature of the test: Fluorescence anisotropy direct titration of GFP-HIF-1α776–826 variants with GST-p300. The class given is binding. The settings on record: 50 nM GFP-HIF-1α776–826 variant, GST-p300 serial dilution, 25 mM Tris–HCl, 150 mM NaCl, 1 mM DTT, pH 7.4, 27 °C, 1:1 model, ± standard error of fitted value, technical triplicates. The text has this:
To experimentally compare the predictions, we carried out an in vitro biophysical study of several HIF-1α sequence variants. We assessed predicted hot residues and their interactions with p300 using the NMR structure to visualize the structural basis behind the predictions (See ESI, ^† Fig. S2). These analyses helped refine a first series of alanine variants to prepare. […] HIF-1α776–826 sequence variants were recombinantly prepared based on the predictions to test their binding to the recombinantly prepared p300 (Fig. 2). Given the length of the peptide ([…]), this was considered advantageous as it obviates the need to chemically synthesise, label and purify multiple variants. As the C-TAD domain is unstructured in isolation it was recombinantly expressed as a fusion protein with GFP. The green-fluorescent protein (GFP) tag was used for fluorescence anisotropy (FA) experiments to determine the binding affinity of HIF-1α776–826 C-TAD variants to p300. As the CH1 domain of p300 is a small domain of 11 kDa it was recombinantly expressed as a fusion protein with GST to increase its size and thus the signal to noise in the FA experiments. We established an assay where the interaction between GFP-tagged wt HIF-1α776–826 and GST-tagged p300 was monitored by FA, using the fluorescence of GFP. GST dimerises with single digit nM Kd[61] (and in our hands exists as a dimer in size exclusion chromatography analyses, see ESI, ^† Fig. S15 for protein characterization data), thus two molecules of GFP-HIF-1α could bind to the GST-p300 dimer (Fig. 2a). We make the assumption that each p300 binding site behaves independently and analyse the binding isotherm using a 1 : 1 model.
Fig. 2 Biophysical analyses on the effects of HIF-1α sequence variant p300 binding affinity. (a) schematic depicting the equilibrium for interaction of GFP-HIF-1α776–826 variants and GST-p300 as studied by fluorescence anisotropy; (b) representative fluorescence anisotropy titration data for sAV and mAV GFP-HIF-1α776–826 peptides interacting with GST-p300 (25 mM Tris–HCl, 150 mM NaCl, 1 mM DTT, pH 7.4), error bars represent standard deviation of technical triplicates; (c) raw ITC data (upper) and fitted thermogram (lower) for the interaction of GFP-HIF-1α776–826 peptides with p300 (37 °C in 25 mM Tris–HCl, 150 mM NaCl, 1 mM DTT, pH 7.4) using 10 μM p300 in the cell and 100 μM GFP-HIF-1α776–826 variant in the syringe; error bars represent estimated integration errors (d) thermodynamic signatures for each interaction. […]
7.4 buffer or dialysed into 25 mM Tris, 150 mM NaCl, 1 mM DTT pH 7.4 buffer.
GSTp300 protein was serially diluted in buffer (25 mM Tris-HCl, 150 mM NaCl, 1mM DTT, pH 7.4) and GFP-HIF-1α (50nM final concentration) was added, the plates were read after 0 min, 60 min, 4 h and 24 h, and incubated at room temperature in between. Each experiment was run in triplicate and the fluorescence anisotropy measured using an EnVision 2103 MultiLabel plate reader (Perkin Elmer) with excitation at 480 nm and emission at 535 nm (30 nm bandwidths). The recorded temperature for all measurements was 27°C ± 1°C. In parallel, a control experiment was performed in which no GFP-HIF was added and the volume made up with additional buffer, this blank was deducted from the raw data for each of the three repeats.
The intensity was calculated for each point using eqn (1) and used to calculated anisotropy […]
using eqn (2). From a plot of anisotropy against GST-p300 concentration the minimum and maximum anisotropies were obtained using a logistic sigmoidal fit in OriginPro 8.6. This allowed the conversion to fraction bound (eqn (3)). The data were then fitted using eqn (4) in OriginPro 8.6 to determine the dissociation constant, Kd. […]
5 µl injections and 180 s spacing between injections, for 40 injections. Titrations were performed in 40 mM Na-phosphate, pH 7.5 100 mM NaCl, 1 mM DTT buffer except for GFP- […]
Background: Fluorescence polarisation rises when a labelled molecule tumbles more slowly, as on binding a larger partner.

In test [2] the target is GST-tagged p300 CH1 domain (residues 330–420) (UniProt Q09472). Nature of the test: fluorescence polarisation; fluorescence anisotropy by the fluorescence of GFP; GFP-HIF-1α 776–826 variants with GST-p300; 25 mM Tris–HCl, 150 mM NaCl, 1 mM DTT, pH 7.4; 1:1 model, each p300 site of the GST dimer taken as independent.

Sequence of GST-p300 (p300 CH1 domain, residues 330–420) (Q09472 330-420): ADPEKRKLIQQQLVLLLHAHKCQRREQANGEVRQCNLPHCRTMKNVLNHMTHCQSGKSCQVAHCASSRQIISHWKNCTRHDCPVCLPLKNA

A word on the Kd: it is a measure of binding affinity in units of concentration. High values mean weaker binding, low ones tighter binding. Regarding “D799A E801A N803A: GFP-HIF-1α776–826 C-TAD multiple alanine variant ({GFP}-SDLACRLLGQSMDESGLPQLTSYACAVAAPIQGSRNLLQGEELLRALDQVN; cysteine pairing not given here)”, in test [1], binding was put at a Kd of 590 ± 302 nM.

With “D799A: GFP-HIF-1α776–826 C-TAD single alanine variant D799A ({GFP}-SDLACRLLGQSMDESGLPQLTSYACEVNAPIQGSRNLLQGEELLRALDQVN; cysteine pairing not given here)”, binding in test [1] was put at a Kd of 114 ± 53 nM. The substance “E801A L822A: GFP-HIF-1α776–826 C-TAD multiple alanine variant ({GFP}-SDLACRLLGQSMDESGLPQLTSYDCAVNAPIQGSRNLLQGEELLRAADQVN; cysteine pairing not given here)” gave a Kd in test [1] of 224 ± 18 nM.

“E817A: GFP-HIF-1α776–826 C-TAD single alanine variant E817A ({GFP}-SDLACRLLGQSMDESGLPQLTSYDCEVNAPIQGSRNLLQGEALLRALDQVN; cysteine pairing not given here)” came in with a Kd in test [1] of 128 ± 11 nM. In test [2], “GFP-HIF-1α 776–826 D799A (from UniProt Q16665 776-826) (domain or fragment)” gave a Kd of 114 nM. “GFP-HIF-1α 776–826 D799A E801A N803A (from UniProt Q16665 776-826) (domain or fragment)” showed a Kd in test [2] of 590 nM. Substance “GFP-HIF-1α 776–826 E801A L822A (from UniProt Q16665 776-826) (domain or fragment)” displayed a Kd in test [2] of 224 nM.

As for “GFP-HIF-1α 776–826 E817A (from UniProt Q16665 776-826) (domain or fragment)”, the Kd in test [2] was 128 nM. In test [2], “GFP-HIF-1α 776–826 L795A (from UniProt Q16665 776-826) (domain or fragment)” yielded a Kd of 118 nM.

Substance “GFP-HIF-1α 776–826 L795A D799A (from UniProt Q16665 776-826) (domain or fragment)” returned a Kd in test [2] of 255 nM. “GFP-HIF-1α 776–826 L795A D799A L818A L822A V825A (from UniProt Q16665 776-826) (domain or fragment)” yielded a Kd in test [2] of 153 nM. “GFP-HIF-1α 776–826 L795A D799A L822A (from UniProt Q16665 776-826) (domain or fragment)” returned a Kd in test [2] of 174 nM. On the same count and under the same terms, to “GFP-HIF-1α 776–826 L818A (from UniProt Q16665 776-826) (domain or fragment)” belongs 237 nM. With “GFP-HIF-1α 776–826 L818A L822A (from UniProt Q16665 776-826) (domain or fragment)”, the Kd in test [2] was 126 nM.

For the substance “GFP-HIF-1α 776–826 L818A L822A D823A (from UniProt Q16665 776-826) (domain or fragment)”, the Kd in test [2] turned out to be 247 nM. With “GFP-HIF-1α 776–826 L818A L822A V825A (from UniProt Q16665 776-826) (domain or fragment)”, the Kd in test [2] turned out to be 54 nM.

For “GFP-HIF-1α 776–826 L822A (from UniProt Q16665 776-826) (domain or fragment)”, the Kd in test [2] amounted to 109 nM. With “GFP-HIF-1α 776–826 N803A (from UniProt Q16665 776-826) (domain or fragment)”, the Kd in test [2] was found to be 120 nM. For “GFP-HIF-1α 776–826 Q824A (from UniProt Q16665 776-826) (domain or fragment)”, in test [2], the Kd was 31 nM. Take “GFP-HIF-1α 776–826 S797A (from UniProt Q16665 776-826) (domain or fragment)”: the Kd in test [2] is 37 nM. Take “GFP-HIF-1α 776–826 V825A (from UniProt Q16665 776-826) (domain or fragment)”: the Kd in test [2] worked out at 198 nM. As to “L795A D799A L818A L822A V825A: GFP-HIF-1α776–826 C-TAD multiple alanine variant ({GFP}-SDLACRLLGQSMDESGLPQATSYACEVNAPIQGSRNLLQGEEALRAADQAN; cysteine pairing not given here)”, in test [1], the Kd is 153 ± 19 nM. As for “L795A D799A L822A: GFP-HIF-1α776–826 C-TAD multiple alanine variant ({GFP}-SDLACRLLGQSMDESGLPQATSYACEVNAPIQGSRNLLQGEELLRAADQVN; cysteine pairing not given here)”, the Kd in test [1] turned out to be 174 ± 45 nM. The same measure, in the same setting: under “L795A D799A: GFP-HIF-1α776–826 C-TAD multiple alanine variant ({GFP}-SDLACRLLGQSMDESGLPQATSYACEVNAPIQGSRNLLQGEELLRALDQVN; cysteine pairing not given here)” stands 255 ± 44 nM; under “L795A: GFP-HIF-1α776–826 C-TAD single alanine variant L795A ({GFP}-SDLACRLLGQSMDESGLPQATSYDCEVNAPIQGSRNLLQGEELLRALDQVN; cysteine pairing not given here)”, 118 ± 19 nM; under “L818A L822A D823A: GFP-HIF-1α776–826 C-TAD multiple alanine variant ({GFP}-SDLACRLLGQSMDESGLPQLTSYDCEVNAPIQGSRNLLQGEEALRAAAQVN; cysteine pairing not given here)”, 247 ± 75 nM. In test [1], “L818A L822A V825A: GFP-HIF-1α776–826 C-TAD multiple alanine variant ({GFP}-SDLACRLLGQSMDESGLPQLTSYDCEVNAPIQGSRNLLQGEEALRAADQAN; cysteine pairing not given here)” displayed a Kd of 54 ± 33 nM. As for “L818A L822A: GFP-HIF-1α776–826 C-TAD multiple alanine variant ({GFP}-SDLACRLLGQSMDESGLPQLTSYDCEVNAPIQGSRNLLQGEEALRAADQVN; cysteine pairing not given here)”, binding in test [1] was characterised by a dissociation constant (Kd) of 126 ± 33 nM. Same read-out and setting: under “L818A: GFP-HIF-1α776–826 C-TAD single alanine variant L818A ({GFP}-SDLACRLLGQSMDESGLPQLTSYDCEVNAPIQGSRNLLQGEEALRALDQVN; cysteine pairing not given here)” stands 237 ± 40 nM; under “L822A: GFP-HIF-1α776–826 C-TAD single alanine variant L822A ({GFP}-SDLACRLLGQSMDESGLPQLTSYDCEVNAPIQGSRNLLQGEELLRAADQVN; cysteine pairing not given here)”, 109 ± 66 nM; under “N803A: GFP-HIF-1α776–826 C-TAD single alanine variant N803A ({GFP}-SDLACRLLGQSMDESGLPQLTSYDCEVAAPIQGSRNLLQGEELLRALDQVN; cysteine pairing not given here)”, 120 ± 17 nM.

“Q824A: GFP-HIF-1α776–826 C-TAD single alanine variant Q824A ({GFP}-SDLACRLLGQSMDESGLPQLTSYDCEVNAPIQGSRNLLQGEELLRALDAVN; cysteine pairing not given here)” showed a Kd in test [1] of 31 ± 8 nM. Regarding “S797A: GFP-HIF-1α776–826 C-TAD single alanine variant S797A ({GFP}-SDLACRLLGQSMDESGLPQLTAYDCEVNAPIQGSRNLLQGEELLRALDQVN; cysteine pairing not given here)”, in test [1], binding was characterised by a dissociation constant (Kd) of 37 ± 16 nM.
